{"source": "patent US20110104667", "biological_target": "infectious prion protein PrPCWD (CWD prion, elk strain E2) (Cervus canadensis (elk)?) (UniProt P67986)", "sequence (P67986 25-233)": "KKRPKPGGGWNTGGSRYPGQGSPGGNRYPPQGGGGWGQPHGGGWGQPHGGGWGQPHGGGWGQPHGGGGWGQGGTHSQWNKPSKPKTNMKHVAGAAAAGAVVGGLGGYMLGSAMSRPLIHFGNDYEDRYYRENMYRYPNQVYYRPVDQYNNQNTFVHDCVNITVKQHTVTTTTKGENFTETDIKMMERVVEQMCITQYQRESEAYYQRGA", "experiment": "EMSA", "design": "unit not given here", "data": [{"sequence": "TACGACTCACTATAGGGATCCNNNNNNNNNNNNNNNNNNNNNNNNNNNNGAATTCCCTTTAGTGAGGGTT [70-mer DNA randomer library, PrPCWD-retained fraction]", "values": [{"measurement": "Kd", "result": "6e-05"}]}]}
